This series concerns the target T1, DNA polymerase kappa core (hpol κ19-536) (Homo sapiens, UniProt Q9UBT6 19-536).
T1 sequence: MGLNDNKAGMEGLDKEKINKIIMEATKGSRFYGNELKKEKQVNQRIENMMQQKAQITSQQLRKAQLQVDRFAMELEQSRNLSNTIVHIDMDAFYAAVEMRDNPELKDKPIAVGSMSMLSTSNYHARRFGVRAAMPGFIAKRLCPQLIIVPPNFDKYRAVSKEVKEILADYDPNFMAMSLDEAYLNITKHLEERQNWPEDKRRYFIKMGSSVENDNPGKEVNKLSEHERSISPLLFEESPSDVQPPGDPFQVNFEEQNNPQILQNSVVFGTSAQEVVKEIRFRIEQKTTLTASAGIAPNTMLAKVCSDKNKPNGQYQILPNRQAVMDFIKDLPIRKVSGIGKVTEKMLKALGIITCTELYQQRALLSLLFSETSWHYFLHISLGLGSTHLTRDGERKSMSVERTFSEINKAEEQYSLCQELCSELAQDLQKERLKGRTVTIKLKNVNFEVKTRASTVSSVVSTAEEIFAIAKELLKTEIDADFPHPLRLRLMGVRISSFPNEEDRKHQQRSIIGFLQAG
Kind of series: fluorescence polarization. For orientation: In fluorescence polarisation assays a small probe gives low polarisation when free and higher when bound to something large.

B1: 11/28-mer non-G4 DNA (mixed)
DNA 1: ATCCTCCCCTA
DNA 2: TATGTGACTATGCTGGGTAGGGGAGGAT
In general, Kd refers to the free concentration of one partner at which half of the binding sites on the other are occupied at equilibrium, for simple one-to-one binding. Lower therefore signals higher affinity. As for B1, binding was characterised by a dissociation constant (Kd) of 86 nM.

B2: 11/28-mer G4 DNA (mixed)
DNA 1: ATCCTCCCCTA
DNA 2: TGGGTGGGTAGGGTGGGTAGGGGAGGAT
Consider B2, for which the affinity, expressed as Kd, was 15 nM.

These data come from publication PMC5113810.
